Test results as given in patent US20170188835.

Target: iTEV(+) 3.0, infrared fluorescent Tobacco Etch Virus (TEV) protease sensor

B1: Tobacco Etch Virus (TEV) protease (protein)
chain: GESLFKGPRDYNPISSTICHLTNESDGHTTSLYGIGFGPFIITNKHLFRRNNGTLLVQSLHGVFKVKNTTTLQQHLIDGRDMIIIRMPKDFPPFPQKLKFREPQREERICLVTTNFQTKSMSSMVSDTSCTFPSSDGIFWKHWIQTKDGQCGSPLVSTRDGFIVGIHSASNFTNTNNYFTSVPKNFMELLTNQEAQQWVSGWRLNADSVLWGGHKVFMSKPEEPFQPVKEATQLMNELVYSQ
  gel electrophoresis with Coomassie blue staining (cleavage of the sensor): Two bands revealed by Coomassie blue staining correspond to N and C half of the sensor with the expected molecular weight
